{"source": "patent US20030180744", "about": "“High affinity oligonucleotide ligands to growth factors” (GILEAD SCIENCES, INC., published 2003)", "binders": {"B1": {"name": "lib3-42 (ssRNA)", "RNA": "GGGGGAGAACGCGGAUCCGGUGGGAAAGUCGGAUUAUGUGUGUAGAUUUGUGUGCGAAAGCUUCGCUCUAGAUCUCCCUUUAGUGAGGGUUA", "modifications": "2'-NH2 pyrimidines"}, "B2": {"name": "lib1-20-3 (ssRNA)", "RNA": "GGGGGAGAACGCGGAUCCUGCUAGACCGAGGAUGCAAAGGGACAUGCAUUAGGGAAACCUAUGUAUAAGAACGCGGUCGCAGAAGCUUCGCUCUAGAUCUCCCUUUAGUGAGGGUUA", "modifications": "2'-F pyrimidines"}, "B3": {"name": "lib2-6-1 (ssRNA)", "RNA": "GGGGGAGAACGCGGAUCCUGUCUCCACCGCCGAUACUGGGGUUCCUGGGGCCCCUCCAUGCAGGAGGGGGGUGGUUCGGAGAAAGCUUCGCUCUAGAUCUCCCUUUAGUGAGGGUUA", "modifications": "2'-NH2 U, 2'-F C"}, "B4": {"name": "lib2-6-1-81 (ssRNA)", "RNA": "GGGGGAGAACGCGGAUCCUGUCUCCACCGCCGAUACUGGGGUUCCUGGGGCCCCUCCAUGCAGGAGGGGGGUGGUUCGGAG", "modifications": "2'-NH2 U, 2'-F C"}, "B5": {"name": "lib8-23 (ssRNA)", "RNA": "GGGGGAGAACGCGGAUCCUGUCUCCACCGCCGAUACUGGGGUUCCUGGGGCCGCUCCAUGCAGGAGGGGGGUGGUUCGGAGAAAGCUUCGCUCUAGAUCUCCCUUUAGUGAGGGUUA", "modifications": "2'-NH2 U, 2'-F C"}, "B6": {"name": "lib1-20-12 (ssRNA)", "RNA": "GGGGGAGAACGCGGAUCCGGUCACCCGGGCAUAUAACAAUGCCGACACUGGGGUACCUGGGACGGGUGGGACUGGACGGAAGAAGCUUCGCUCUAGAUCUCCCUUUAGUGAGGGUUA"}, "B7": {"name": "lib2-6-8 (lib1-6-8 in Table 4) (ssRNA)", "RNA": "GGGGGAGAACGCGGAUCCAUAACCGGCUGCAUGGGAGGGACAUCCUGGGAAAGGACGGGUCGAGAUGACCUGAGCAGUUCCGGCAAGCUUCGCUCUAGAUCUCCCUUUAGUGAGGGUUA"}}, "key": {"[1]": {"molecular_target": "T1, TGFβ1 (Homo sapiens, UniProt P01137 P01137:279-390)", "T1 sequence (P01137 279-390, one chain of several)": "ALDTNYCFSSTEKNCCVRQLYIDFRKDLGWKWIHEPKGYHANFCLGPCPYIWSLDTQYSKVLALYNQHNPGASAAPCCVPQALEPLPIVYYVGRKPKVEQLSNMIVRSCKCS", "test": "cell_activity", "details": "tags: Genentech or R&D Systems; chain copies: 2", "description": "MLEC-Pail/luc cells were plated at 3.2×10⁴ cells per well in a 96 well Falcon plate, in 100 μl of DME+10% fetal bovine serum overnight. Media was made from autoclaved water. The cells were washed three times ([…]) in serum free DME plus Solution A (1:1). Solution A is 30 mM Hepes pH 7.6, 10 mM glucose, 3.0 mM KCl, 131 mM NaCl, 1.0 mM disodium phosphate. Samples (100 μl) were added in DME containing 20 mM Hepes pH 7.5, and 0.1% BSA (Fluka, radioimmunoassay grade). All samples were in triplicate. After six hours at 37° C. in a 5% CO₂ incubator the media was removed and cells were washed three times (100 μl each) in cold PBS. Lysis buffer (75 μl) (Analytical Luminescence Laboratory) was added and the plates incubated on ice for 20 min. The plates were sealed and frozen at −80° C. until assayed. Samples (25 μl) were assayed for luciferase activity with the Enhanced Luciferase Assay Kit from Analytical Luminescence Laboratory (San Diego, Calif., USA) according to the manufacturer's instructions using the Berthold Microlumat LB96P luminometer.\nLigands tested for inhibition of TGFβ1 activity were tested at a minimum of five concentrations. The ligands were serially diluted in DME, 20 mM Hepes pH 7.5, 0.1% Fluka BSA in polypropylene tubes and an equal volume of media containing 12 pM TGFβ1 was added to each tube, vortexed and transferred to the cells without further incubation."}, "[2]": {"molecular_target": "T1, TGFβ1", "test": "filter; cell IC50 22 nM", "details": "tags: Genentech; biotinylated version used in bead assay; chain copies: 2"}, "[3]": {"molecular_target": "T1, TGFβ1", "test": "filter; not inhibitory; no binding with 2'-NH2 pyrimidines", "details": "tags: Genentech; biotinylated version used in bead assay; chain copies: 2"}, "[4]": {"molecular_target": "T1, TGFβ1", "test": "filter; cell IC50 103 and 112 nM; fully effective only against TGFβ1, not TGFβ2 or TGFβ3", "details": "tags: Genentech; biotinylated version used in bead assay; chain copies: 2"}, "[5]": {"molecular_target": "T1, TGFβ1", "test": "filter; cell IC50 298 and 201 nM", "details": "tags: Genentech; biotinylated version used in bead assay; chain copies: 2"}, "[6]": {"molecular_target": "T1, TGFβ1", "test": "filter; C to G at position 53; not inhibitory", "details": "tags: Genentech; biotinylated version used in bead assay; chain copies: 2"}, "[7]": {"molecular_target": "T1, TGFβ1", "test": "filter; 2'-OH RNA", "details": "tags: Genentech; biotinylated version used in bead assay; chain copies: 2"}, "[8]": {"molecular_target": "T1, TGFβ1", "test": "filter; 2'-OH RNA; printed lib1-6-8 in Table 4", "details": "tags: Genentech; biotinylated version used in bead assay; chain copies: 2"}}}
{"binder": "B1", "values": [{"measurement": "IC50", "setting": "[1]", "value": 22, "unit": "nM"}, {"measurement": "Kd", "setting": "[2]", "value": 0.6, "unit": "nM"}]}
{"binder": "B2", "values": [{"measurement": "Kd", "setting": "[3]", "value": 30, "unit": "nM"}]}
{"binder": "B3", "values": [{"measurement": "Kd", "setting": "[4]", "value": 14.3, "unit": "nM"}]}
{"binder": "B4", "values": [{"measurement": "Kd", "setting": "[5]", "value": 10.7, "unit": "nM"}]}
{"binder": "B5", "values": [{"measurement": "Kd", "setting": "[6]", "value": 6.6, "unit": "nM"}]}
{"binder": "B6", "values": [{"measurement": "Kd", "setting": "[7]", "value": 3.1, "unit": "nM"}]}
{"binder": "B7", "values": [{"measurement": "Kd", "setting": "[8]", "value": 4.7, "unit": "nM"}]}
